B1: minF1; a variant is named by its letters at N, in order (parent)
chain: GAGACCGCAACTGAAAAGTTGTTNNNNAANNNNGGNTNNATTTCTGCACGTAGAAGCAAAAGGC
B2: minF1; the commonest letter at each place (parent)
chain: GAGACCGCAACTGAAAAGTTGTTATCAGAAATGGATGGGTTGAATTTCTGCACGTAGAAGCAAAAGGC

These results are taken from the supplement of paper PMC6755084.

The first data set covers variants of B1. Put plainly: fraction ligated after 30 min (ligated reads / total reads); higher = more ligase activity. The settings on record: with F1*subA RNA substrate (template-directed ligation), 42 °C. How it is done:
(§1)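 Chip-synthesised pool of minF1 ligase ribozyme variants (single and double substitutions, single to quadruple deletions, bulge and P2 designed variants) was transcribed with T7 and reacted as a pool with excess substrate F1*subA for 30 min at 42 C in 50 mM EPPS pH 8.5, 25 mM MgCl2. Ligated and unligated RNAs were separated by PAGE, barcoded by RT and deep sequenced; fraction ligated = ligated reads / total reads, relative activity = FL / FL of wild-type minF1 (0.76); sequencing FL correlated with PAGE (R2 = 0.98). Sequences are the DNA template of the ribozyme.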
As for GAGACCGCAACTGAAAAGTTGTTATCAAAAGGGGGTTGAATTTCTGCACGTAGAAGCAAAAGGC [ATCAAGGGTGA], the fraction ligated was 0.00247.
The same measure, in the same setting: in the case of GAGACCGCAACTGAAAAGTTGTTATAGAAGGAGGGTTGAATTTCTGCACGTAGAAGCAAAAGGC [ATAGGGAGTGA] it was 0.00238; in that of GAGACCGCAACTGAAAAGTTGTTACAGAATGGTGGGTTGATTTCTGCACGTAGAAGCAAAAGGC [ACAGTGGTGTG], 0.00543.
As for GAGACCGCAACTGAAAAGTTGTATGAAATGATGGGTTGAATTTCTGCACGTAGAAGCAAAAGGC [TGAAGATGTGA T23A A29T], the fraction ligated was determined as 0.00202.
Same read-out and setting: in the case of GAGACCGCAACTGAAAAGTTGTTACAAATGGATGGTTGAATTTCTGCACGTAGAAGCAAAAGGC [ACAAGGATTGA A29T] it was 0.00464.
For GAGACCGCAACTGAAAAGTTGTTTAGAATGGATGGTTGAATTTCTGCACGTAGAAGCAAAAGGC [TAGAGGATTGA A29T], the fraction ligated came out at 0.00809.
Same read-out and setting: under GAGACCGCAACTGAAAAGTTGTATCAAATGGTGGGTTGAATTTCTGCACGTAGAAGCAAAAGGC [TCAAGGTGTGA T23A A29T] stands 0.00393; under GAGACCGCAACTGAAAAGTTGTTATAGAATGTGGGTTGAATTTCTGCACGTAGAAGCAAAAGGC [ATAGTGTGTGA], 0.0025.
Still for that read-out and setting: in the case of GAGACCGCAACTGAAAAGTTGTATCGAAATGGTGGGTTGATTTCTGCACGTAGAAGCAAAAGGC [TCGATGGTGTG T23A] it was 0.00391; in that of GAGACCGCAACTGAAAAGTTGTATCAGAATGGAGGGTTAATTTCTGCACGTAGAAGCAAAAGGC [TCAGTGGAGTA T23A], 0.00382.
Regarding GAGACCGCAACTGAAAAGTTGTTTCAGAAGGATGGGTTAATTTCTGCACGTAGAAGCAAAAGGC [TCAGGGATGTA], the fraction ligated amounted to 0.00309.
Still for that read-out and setting: in the case of GAGACCGCAACTGAAAAGTTGTTTCAGAAATGGAGGTTGATTTCTGCACGTAGAAGCAAAAGGC [TCAGATGGGTG G34A] it was 0.00479; in that of GAGACCGCAACTGAAAAGTTGTTATCAAAATTGGGTTGAATTTCTGCACGTAGAAGCAAAAGGC [ATCAATTGTGA], 0.00256; in that of GAGACCGCAACTGAAAAGTTGTTTCGAATGGTGGGTTGAATTTCTGCACGTAGAAGCAAAAGGC [TCGAGGTGTGA A29T], 0.00308.

In another data set the parent is B2. The data set is described as above. As to conditions: with F1*subA RNA substrate (template-directed ligation), 42 °C. How it is done: as §1
Consider GAGACCGCAACTGAAAAGTTGTAATCAGAAATGGATGGGTTTAATTTCTGCACGTAGAAGCAAAAGGC [T23A G42T], for which the fraction ligated stood at 0.003.
Take GAGACCGCAACTGAAAAGTTGTAATCAGAAATGGATGGGTTAAATTTCTGCACGTAGAAGCAAAAGGC [T23A G42A]: the fraction ligated is 0.0065.
Same read-out and setting: under GAGACCGCAACTGAAAAGTTGTAATCAGAAATGGATGGGTTCAATTTCTGCACGTAGAAGCAAAAGGC [T23A G42C] stands 0.00428; under GAGACCGCAACTGAAAAGTTGTAATCAGTAATGGATGGGTTGAATTTCTGCACGTAGAAGCAAAAGGC [T23A A29T], 0.156.
Still for that read-out and setting: in the case of GAGACCGCAACTGAAAAGTTGTAATCAGCAATGGATGGGTTGAATTTCTGCACGTAGAAGCAAAAGGC [T23A A29C] it was 0.15.
In the case of GAGACCGCAACTGAAAAGTTGTAATCAGGAATGGATGGGTTGAATTTCTGCACGTAGAAGCAAAAGGC [T23A A29G], the fraction ligated amounted to 0.189.
Still for that read-out and setting: under GAGACCGCAACTGAAAAGTTGTAATCAGAAATGGATGGGTTGAATTTCTGCACGTAGAAGCAAAAGGC [T23A] stands 0.215.
Turning to GAGACCGCAACTGAAAAGTTGTCATCAGAAATGGATGGGTTGAATTTCTGCACGTAGAAGCAAAAGGC [T23C], the fraction ligated amounted to 0.318.
The same measure, in the same setting: in the case of GAGACCGCAACTGAAAAGTTGTAATCAGAATTGGATGGGTTGAATTTCTGCACGTAGAAGCAAAAGGC [T23A A31T] it was 0.325; in that of GAGACCGCAACTGAAAAGTTGTAATCAGAACTGGATGGGTTGAATTTCTGCACGTAGAAGCAAAAGGC [T23A A31C], 0.181.
The same measure, in the same setting: in the case of GAGACCGCAACTGAAAAGTTGTAATCAGAAGTGGATGGGTTGAATTTCTGCACGTAGAAGCAAAAGGC [T23A A31G] it was 0.264; in that of GAGACCGCAACTGAAAAGTTGTAATCACAAATGGATGGGTTGAATTTCTGCACGTAGAAGCAAAAGGC [T23A G28C], 0.132.
Turning to GAGACCGCAACTGAAAAGTTGTAATCAAAAATGGATGGGTTGAATTTCTGCACGTAGAAGCAAAAGGC [T23A G28A], the fraction ligated was found to be 0.178.
In the case of GAGACCGCAACTGAAAAGTTGTAATCATAAATGGATGGGTTGAATTTCTGCACGTAGAAGCAAAAGGC [T23A G28T], the fraction ligated amounted to 0.176.
On to GAGACCGCAACTGAAAAGTTGTAATCAGAAATAGATGGGTTGAATTTCTGCACGTAGAAGCAAAAGGC [T23A G33A], for which the fraction ligated stood at 0.178.
The same measure, in the same setting: under GAGACCGCAACTGAAAAGTTGTAATCAGAAATTGATGGGTTGAATTTCTGCACGTAGAAGCAAAAGGC [T23A G33T] stands 0.0493; under GAGACCGCAACTGAAAAGTTGTAATCAGAAATCGATGGGTTGAATTTCTGCACGTAGAAGCAAAAGGC [T23A G33C], 0.0701; under GAGACCGCAACTGAAAAGTTGTAATCAGAAATGGATGGGTTGAGTTTCTGCACGTAGAAGCAAAAGGC [T23A A44G], 0.0455.
Still for that read-out and setting: under GAGACCGCAACTGAAAAGTTGTAATCAGAAATGGATGGGTTGACTTTCTGCACGTAGAAGCAAAAGGC [T23A A44C] stands 0.0208; under GAGACCGCAACTGAAAAGTTGTAATCAGAAATGGATGGGTTGATTTTCTGCACGTAGAAGCAAAAGGC [T23A A44T], 0.0479.
Consider GAGACCGCAACTGAAAAGTTGTAATCAGATATGGATGGGTTGAATTTCTGCACGTAGAAGCAAAAGGC [T23A A30T], for which the fraction ligated stood at 0.132.
The same measure, in the same setting: in the case of GAGACCGCAACTGAAAAGTTGTAATCAGAGATGGATGGGTTGAATTTCTGCACGTAGAAGCAAAAGGC [T23A A30G] it was 0.358.
The same measure, in the same setting: under GAGACCGCAACTGAAAAGTTGTAATCAGACATGGATGGGTTGAATTTCTGCACGTAGAAGCAAAAGGC [T23A A30C] stands 0.126.
On the same count and under the same terms, under GAGACCGCAACTGAAAAGTTGTAATCAGAAATGGCTGGGTTGAATTTCTGCACGTAGAAGCAAAAGGC [T23A A35C] stands 0.00609.
Turning to GAGACCGCAACTGAAAAGTTGTAATCAGAAATGGGTGGGTTGAATTTCTGCACGTAGAAGCAAAAGGC [T23A A35G], the fraction ligated was 0.0122.
The same measure, in the same setting: in the case of GAGACCGCAACTGAAAAGTTGTAATCAGAAATGGTTGGGTTGAATTTCTGCACGTAGAAGCAAAAGGC [T23A A35T] it was 0.0125.
